Test results taken from patent publication US20260242478A1 (published 2026).
Where no end group is shown, it is not given here.

Experiments:
[1] = target: Anti-CD28 Fab (SEQ ID NOs: 696, 697); test: phage ELISA on captured anti-CD28 Fab, wells pre-incubated with CD28 antigen as competitor;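 note: crude clonal phage supernatants added without washing, bound phage read out by HRP-coupled anti-M13 antibody, reference wells given blocking buffer only instead of CD28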
Target sequence in this assay (VH, as listed by the source, chain 1 of 2): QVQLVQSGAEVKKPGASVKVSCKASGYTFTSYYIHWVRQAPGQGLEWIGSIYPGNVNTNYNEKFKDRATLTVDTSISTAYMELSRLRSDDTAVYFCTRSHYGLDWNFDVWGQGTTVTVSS
Target sequence in this assay (VL, as listed by the source, chain 2 of 2): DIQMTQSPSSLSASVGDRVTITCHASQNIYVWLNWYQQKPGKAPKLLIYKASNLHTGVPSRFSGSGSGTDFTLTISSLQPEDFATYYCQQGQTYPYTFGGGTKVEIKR

[2] = target: Anti-CD28 Fab (SEQ ID NOs: 696, 697); test: phage ELISA, clonal phage supernatant on biotinylated anti-CD28 Fab captured on neutravidin plates
Target sequence in this assay (VH, as listed by the source, chain 1 of 2): as the sequence (VH, as listed by the source, chain 1 of 2) above
Target sequence in this assay (VL, as listed by the source, chain 2 of 2): as the sequence (VL, as listed by the source, chain 2 of 2) above
Method: (§1) After panning, phage infected bacteria were plated out and colonies picked into 96 well blocks. Clonal phage was then amplified and separated from bacterial cells via centrifugation.
(§2) Clonal phage were harvested as crude supematants and screened via standard ELISAs. […] Prior to the addition of clonal phage, wells were incubated with blocking buffer and CD28 antigen or blocking buffer alone. Without washing or aspirating, clonal phage supematants were then added to the wells and incubated for a short time. Wells were then washed followed by detection of bound phage using a horse radish conjugated anti-M13 antibody. Clonal phage of interest were then sent for sequence analysis.

[3] = target: T1, Anti-CD28 Fab (SEQ ID NOs: 696, 697); test: phage ELISA; captured anti-CD28 Fab pre-incubated with CD28 antigen as competitor, anti-M13 HRP detection;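 note: crude clonal phage supernatants screened by ELISA, with wells pre-incubated with CD28 antigen in blocking buffer, compared against wells given blocking buffer alone as control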
T1 construct: In the phage ELISA the Fab was biotinylated and captured on neutravidin coated plates
T1 sequence (VH, as listed by the source, chain 1 of 2): as the sequence (VH, as listed by the source, chain 1 of 2) above
T1 sequence (VL, as listed by the source, chain 2 of 2): as the sequence (VL, as listed by the source, chain 2 of 2) above
Method: as §1, §2

[4] = target: T1, Anti-CD28 Fab (SEQ ID NOs: 696, 697); test: phage ELISA; biotinylated anti-CD28 Fab on neutravidin plate, clonal phage supernatant, anti-M13 HRP detection;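 note: crude supernatants of single phage clones picked after panning were screened for binding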
[5] = target: T2, Anti-CD28 Fab (SEQ ID NOs: 696, 697); test: phage ELISA; Fab on plate pre-incubated with CD28 antigen as competitor, anti-M13 HRP detection
T2 construct: Used biotinylated and captured on neutravidin coated plates in the phage ELISA
T2 sequence (VH, as listed by the source, chain 1 of 2): as the sequence (VH, as listed by the source, chain 1 of 2) above
T2 sequence (VL, as listed by the source, chain 2 of 2): as the sequence (VL, as listed by the source, chain 2 of 2) above
Method: as §1, §2

[6] = target: T2, Anti-CD28 Fab (SEQ ID NOs: 696, 697); test: phage ELISA; biotinylated Fab on neutravidin plate, clonal phage supernatant, anti-M13 HRP detection
Method: as §1, §2

Binder	Anti-CD28 Fab signal in the presence of CD28 (phage binding ELISA) [1]	Anti-CD28 Fab signal (phage binding ELISA) [2]	Phage binding ELISA, Anti-CD28 Fab signal in the presence of CD28 [5]	Phage binding ELISA, Anti-CD28 Fab (SEQ ID NOs: 696, 697) signal [6]	other results
YCDGHRAEYMLKCL (Peptide-87 library clone, tested as clonal phage (peptide fused to pIII of the bacteriophage)) [Phage-1118]	0.08	1.29			
YCEGHQPAYMEKCL (Peptide-87 library clone, tested as clonal phage (peptide fused to pIII of the bacteriophage)) [Phage-1127]	0.06	1.27			
YCEGHSAVYMSKCL (Tested as clonal phage supernatant; not shown: pIII coat protein of the bacteriophage to which the peptide is fused) [Phage-1113 (Peptide-87 library clone, SEQ ID NO: 1429)]					Anti-CD28 Fab signal in the presence of CD28 (phage binding ELISA) [3]: 0.06; Anti-CD28 Fab signal (phage binding ELISA) [4]: 1.31
YCDGHNPVYLAKCL (cysteine pairing not given here; also: fused to phage pIII protein, pIII and linker sequence not given here, Peptide-87 library clone on clonal phage (crude supernatant); not shown: fused to the pIII filament protein of the bacteriophage) [Phage-1277]			0.08	0.74	
YCEGHLVQYMQKCL (Peptide-87 library clone, tested as clonal phage (peptide fused to pIII of the bacteriophage)) [Phage-1119]	0.06	1.28			
YCMGHLPIYMEKCL (Peptide-87 library clone, tested as clonal phage (peptide fused to pIII of the bacteriophage)) [Phage-1120]	0.05	1.28			
YCEGHLPRYMLKCL (Peptide-87 library clone, tested as clonal phage (peptide fused to pIII of the bacteriophage)) [Phage-1121]	0.3	1.28			
YCEGHLPWYMSKCL (cysteine pairing not given here; also: fused to phage pIII protein, pIII and linker sequence not given here, Peptide-87 library clone on clonal phage (crude supernatant); not shown: fused to the pIII filament protein of the bacteriophage) [Phage-1284]			0.09	0.69	
YCEGHSSEYMVKCL (cysteine pairing not given here; also: displayed on phage by fusion to pIII, linker and pIII sequence not given here, Peptide-87 library clone on clonal phage (crude supernatant); not shown: fused to the pIII filament protein of the bacteriophage) [Phage-1273]			0.06	0.77	
YCDGHAEEYRMKCL (Peptide-87 library clone, tested as clonal phage (peptide fused to pIII of the bacteriophage)) [Phage-1128]	0.08	1.27			
YCAGHALEYMGKCL (Tested as clonal phage supernatant; not shown: pIII coat protein of the bacteriophage to which the peptide is fused) [Phage-1107 (Peptide-87 library clone, SEQ ID NO: 1423)]					Anti-CD28 Fab signal in the presence of CD28 (phage binding ELISA) [3]: 0.06; Anti-CD28 Fab signal (phage binding ELISA) [4]: 1.32
YCEGHSSQWMWKCL (Peptide-87 library clone, tested as clonal phage (peptide fused to pIII of the bacteriophage)) [Phage-1124]	0.09	1.27			
YCEGHSTEYMAKCL (Peptide-87 library clone, tested as clonal phage (peptide fused to pIII of the bacteriophage)) [Phage-1126]	0.06	1.27			
YCEGHFGMYMSKCL (cysteine pairing not given here; also: fused to phage pIII protein, pIII and linker sequence not given here, Peptide-87 library clone on clonal phage (crude supernatant); not shown: fused to the pIII filament protein of the bacteriophage) [Phage-1280]			0.07	0.73	
YCEGHLPAYMWKCL (Tested as clonal phage supernatant; not shown: pIII coat protein of the bacteriophage to which the peptide is fused) [Phage-1109 (Peptide-87 library clone, SEQ ID NO: 1425)]					Anti-CD28 Fab signal in the presence of CD28 (phage binding ELISA) [3]: 0.08; Anti-CD28 Fab signal (phage binding ELISA) [4]: 1.31
YCAGHLPQYVSKCL (cysteine pairing not given here; also: fused to phage pIII protein, pIII and linker sequence not given here, Peptide-87 library clone on clonal phage (crude supernatant); not shown: fused to the pIII filament protein of the bacteriophage) [Phage-1283]			0.06	0.7	
YCAGHSVQYMYKCL (cysteine pairing not given here; also: fused to phage pIII protein, pIII and linker sequence not given here, Peptide-87 library clone on clonal phage (crude supernatant); not shown: fused to the pIII filament protein of the bacteriophage) [Phage-1279]			0.06	0.74	
YCEGHFPLYMNKCL (Peptide-87 library clone, tested as clonal phage (peptide fused to pIII of the bacteriophage)) [Phage-1125]	0.08	1.27			

Binder	Anti-CD28 Fab signal in the presence of CD28 (phage binding ELISA) [1]	Anti-CD28 Fab signal (phage binding ELISA) [2]	Phage binding ELISA, Anti-CD28 Fab signal in the presence of CD28 [5]	Phage binding ELISA, Anti-CD28 Fab (SEQ ID NOs: 696, 697) signal [6]	other results
YCQGHSVEHMAKCL (Peptide-87 library clone, tested as clonal phage (peptide fused to pIII of the bacteriophage)) [Phage-1116]	0.06	1.3			
YCDGHAPQYMAKCI (Tested as clonal phage supernatant; not shown: pIII coat protein of the bacteriophage to which the peptide is fused) [Phage-1115 (Peptide-87 library clone, SEQ ID NO: 1431)]					Anti-CD28 Fab signal in the presence of CD28 (phage binding ELISA) [3]: 0.06; Anti-CD28 Fab signal (phage binding ELISA) [4]: 1.3
YCDGHIPEYMTKCL (Tested as clonal phage supernatant; not shown: pIII coat protein of the bacteriophage to which the peptide is fused) [Phage-1111 (Peptide-87 library clone, SEQ ID NO: 1427)]					Anti-CD28 Fab signal in the presence of CD28 (phage binding ELISA) [3]: 0.06; Anti-CD28 Fab signal (phage binding ELISA) [4]: 1.31
YCDGHTAEFIGKCL (Tested as clonal phage supernatant; not shown: pIII coat protein of the bacteriophage to which the peptide is fused) [Phage-1106 (Peptide-87 library clone, SEQ ID NO: 1422)]					Anti-CD28 Fab signal in the presence of CD28 (phage binding ELISA) [3]: 0.06; Anti-CD28 Fab signal (phage binding ELISA) [4]: 1.32
YCAGHIGEYMDKCL (cysteine pairing not given here; also: fused to phage pIII protein, pIII and linker sequence not given here, Peptide-87 library clone on clonal phage (crude supernatant); not shown: fused to the pIII filament protein of the bacteriophage) [Phage-1275]			0.58	0.75	
YCQGHALQYLQKCL (cysteine pairing not given here; also: fused to phage pIII protein, pIII and linker sequence not given here, Peptide-87 library clone on clonal phage (crude supernatant); not shown: fused to the pIII filament protein of the bacteriophage) [Phage-1282]			0.08	0.71	
YCDGHSPAYLQKCL (Peptide-87 library clone, tested as clonal phage (peptide fused to pIII of the bacteriophage)) [Phage-1123]	0.06	1.28			
YCDGHTGVYKWKCI (cysteine pairing not given here; also: fused to phage pIII protein, pIII and linker sequence not given here, Peptide-87 library clone on clonal phage (crude supernatant); not shown: fused to the pIII filament protein of the bacteriophage) [Phage-1274]			0.06	0.76	
YCAGHMPQYMSKCL (cysteine pairing not given here; also: fused to phage pIII protein, pIII and linker sequence not given here, Peptide-87 library clone on clonal phage (crude supernatant); not shown: fused to the pIII filament protein of the bacteriophage) [Phage-1281]			0.05	0.72	
YCDGHLPVYMTKCL (Peptide-87 library clone, tested as clonal phage (peptide fused to pIII of the bacteriophage)) [Phage-1129]	0.07	1.27			
YCEGHAQQYMLKCL (cysteine pairing not given here; also: fused to phage pIII protein, pIII and linker sequence not given here, Peptide-87 library clone on clonal phage (crude supernatant); not shown: fused to the pIII filament protein of the bacteriophage) [Phage-1278]			0.05	0.74	
YCDGHSAEYIAKCL (Tested as clonal phage supernatant; not shown: pIII coat protein of the bacteriophage to which the peptide is fused) [Phage-1112 (Peptide-87 library clone, SEQ ID NO: 1428)]					Anti-CD28 Fab signal in the presence of CD28 (phage binding ELISA) [3]: 0.05; Anti-CD28 Fab signal (phage binding ELISA) [4]: 1.31
YCEGHLEIYLAKCL (Tested as clonal phage supernatant; not shown: pIII coat protein of the bacteriophage to which the peptide is fused) [Phage-1105 (Peptide-87 library clone, SEQ ID NO: 1421)]					Anti-CD28 Fab signal in the presence of CD28 (phage binding ELISA) [3]: 0.07; Anti-CD28 Fab signal (phage binding ELISA) [4]: 1.32
YCEGHSLEYMMKCV (Tested as clonal phage supernatant; not shown: pIII coat protein of the bacteriophage to which the peptide is fused) [Phage-1114 (Peptide-87 library clone, SEQ ID NO: 1430)]					Anti-CD28 Fab signal in the presence of CD28 (phage binding ELISA) [3]: 0.07; Anti-CD28 Fab signal (phage binding ELISA) [4]: 1.3
YCDGHAGIYVLKCL (cysteine pairing not given here; also: fused to phage pIII protein, pIII and linker sequence not given here, Peptide-87 library clone on clonal phage (crude supernatant); not shown: fused to the pIII filament protein of the bacteriophage) [Phage-1276]			0.08	0.75	
YCDGHLEVYMDKCL (Peptide-87 library clone, tested as clonal phage (peptide fused to pIII of the bacteriophage)) [Phage-1122]	0.07	1.28			
YCAGHMPIYMTKCL (Peptide-87 library clone, tested as clonal phage (peptide fused to pIII of the bacteriophage)) [Phage-1117]	0.08	1.3			
YCEGHLPEYMIKCL (Tested as clonal phage supernatant; not shown: pIII coat protein of the bacteriophage to which the peptide is fused) [Phage-1108 (Peptide-87 library clone, SEQ ID NO: 1424)]					Anti-CD28 Fab signal in the presence of CD28 (phage binding ELISA) [3]: 0.06; Anti-CD28 Fab signal (phage binding ELISA) [4]: 1.32
